Results taken from patent US20230181719A1, “NGR CONJUGATES AND USES THEREOF” (OSPEDALE SAN RAFFAELE S.R.L., priority 2020, published 2023).
Like-named read-outs stand apart in the source and are kept apart here. Positions of bridges follow the written chain, without caps; N, C: chain ends. No end group written: not given here.

What was measured:
[1] = buffer; cited from earlier work
RMA-T lymphoma = assay type: in vivo, mice
Description: RMA-T tumor-bearing mice (6 per group) were treated 11 days after tumor implantation with 100 pg of S-NGR-hTNF (i.p.). Two hours later, the mice were injected (i.p.) with 50 µg of melphalan (generic preparation of melphalan, Tillomed).
B) Kaplan-Maier curves of vehicle, melphalan alone and in combination with S-NGR-hTNF.
C) Animal body weight change (mean ± SE, 6 mice per group). Arrows: pharmacological treatment.
Inventors have shown previously that low-dose murine S-NGR-TNF (100 pg) can enhance the antitumor activity of melphalan, an anticancer alkylating agent, in a murine lymphoma model (Corti et al., 2020). To assess whether S-NGR-hTNF can also synergize with melphalan, inventors performed similar experiments using the RMA-T lymphoma model. As expected, administration of melphalan (50 µg) in combination with S-NGR-hTNF (100 pg) induced stronger antitumor effects than melphalan alone (FIGS. 21A-B).

[2] = system: malignant pleural mesothelioma (MPM); conditions: cited from earlier work
[3] = system: primary central nervous system lymphoma (PCNSL); conditions: with R-CHOP; cited from earlier work
αvβ3 = αvβ3 (Homo sapiens, UniProt P05106+P06756); conditions: cited from earlier work
L-M cells = test: LM-cells cytolytic assay (MTT); assay type: cell-based; conditions: actinomycin D, 20 h, murine proteins
Source text: FIG. 8. Biochemical and biological characterization of murine S-NGR-TNF and NGR-TNF. A) SDS-PAGE under reducing (βMe +) and non-reducing conditions (βMe -) of murine S-NGR-TNF, NGR-TNF and TNF. Arrows: bands corresponding to monomeric subunits (mon) and reducible dimers (dim). B) Representative mass spectra of murine NGR-TNF, TNF and S-NGR-TNF as determined by a Q Exactive HF mass spectrometer. Expected average masses are shown. C) Cytotoxic activity of TNF, NGR-TNF and S-NGR-TNF against L-M cells. L-M cells were incubated in DMEM medium supplemented with 2 mM glutamine, 100 U/ml penicillin, 100 µg/ml streptomycin, 0.25 µg/ml amphotericin-B, 10% fetal bovine serum, 2 µg/ml actinomycin D and TNF, NGR-TNF or S-NGR-TNF at the indicated doses (20 h at 37° C., 5% CO2). Cell viability was quantified by standard 3-(4,5-dimethylthiazol-2-yl)-2,5-diphenyltetrazolium bromide (MTT) assay. D) Binding of TNF, NGR-TNF and S-NGR-TNF to sTNF-R1 (Etanercept). Microtiterplates were precoated with or without the indicated amount of sTNF-R1 (for 16 h), washed with PBS, blocked with PBS containing 3% milk, 1% BSA (binding buffer, 1 h) and incubated with the indicated amounts of TNF, NGR-TNF or S-NGR-TNF diluted in binding buffer (for 1.5 h). The binding of each protein to sTNF-R1 was then detected using a polyclonal anti-murine TNF (IP301, 5 µg/ml in binding buffer, 1 h) followed by a polyclonal goat anti-rabbit antibody conjugated with horseradish peroxidase (1:1000 in binding buffer, 1 h) and o-phenylendiammine as chromogenic substrate.
To assess whether the addition of a serine residue to NGR-TNF affects its capability to recognize the TNF receptors and, consequently, its biological activity, inventors then analyzed the cytotoxic activity of TNF, NGR-TNF and S-NGR-TNF in the LM-cells cytolytic assay.

RMA lymphoma = assay type: in vivo, mice; conditions: 100 pg i.p., melphalan two hours later
Description: FIG. 15. […] C57BL/6 mice (6-7 weeks old, weighing 18-20 g) were challenged with subcutaneous injection in the left flank of 7×10^4 RMA cells. Mice bearing RMA lymphomas (6 per group) were treated 10-11 days (after tumor implantation with 100 pg of murine NGR-TNF or S-NGR-TNF (i.p.). Two hours later, the mice were injected with the indicated dose of melphalan (i.p.). All proteins were diluted with 0.9% sodium chloride, containing 100 µg/ml endotoxin-free human albumin. Tumor growth was monitored daily by measuring the tumors with calipers. A-B) Tumor volume change of two independent experiments are shown (mean±SE). […] C) Tumor bearing-animals were treated at day 10 after tumor implantation as indicated above using the indicated dose of S-NGR-TNF and the generic preparation of melphalan (Melphalan-Tillomed, from Tillomed Italia). RMA tumor weight at day 20 are shown (mean±SE). *, P<0.05, **P<0.01 by unpaired t test analysis with the GraphPad Prism software.
Effect of melphalan alone or in combination with low-dose murine S-NGR-TNF on the body weight and tumor growth of RMA-T lymphoma-bearing mice. Six tumor-bearing mice were injected with the indicated doses of S-NGR-TNF (i.p) and, two hours later, with the generic preparation of melphalan (Melphalan-Tillomed) (i.p.).
Finally, to assess whether low-dose S-NGR-TNF can exert synergistic effects with chemotherapy, as previously observed for NGR-TNF, inventors performed in vivo experiments with S-NGR-TNF and NGR-TNF in combination with melphalan, a chemotherapeutic drug, using the murine RMA lymphoma model (FIG. 15).

[4] = system: endothelial EA.hy926 cells; test: EA.hy926 endothelial cell adhesion assay on protein-coated microtiterplates; assay type: cell-based; conditions: plates coated in PBS, no forced deamidation
Description: FIG. 12. […] A) Adhesion of endothelial EA.hy926 cells to 96-wells microtiterplates coated with different amounts of murine TNF, NGR-TNF and S-NGR-TNF in 150 mM sodium chloride, 50 mM sodium phosphate buffer, pH 7.4 (PBS) (16 h). Each well was blocked with 2% BSA in PBS containing calcium chloride and magnesium chloride (DPBS, 30 min), seeded with 40.000 endothelial EA.hy926 cells in DPBS supplemented with 0.1% BSA (DPBS-B), and left to incubate for 2 h at 37° C., 5% CO2. After washing with DMEM-B, adherent cells were stained with crystal violet and quantified by spectrophotometric measurements at 570 nm. B) Microtiterplates pre-coated with 1 µg/ml of murine NGR-TNF or S-NGR-TNF in PBS (for 16 h) were incubated 0.1 M ammonium bicarbonate buffer, pH 8.5 (Ambic) at 37° C. for the indicated time to promote NGR deamidation. EA.hy926 cell adhesion assay was then performed as described above.
This behavior likely reflects a further improvement in the CNGRCG (SEQ ID NO: 1) stability when fused to TNF.

WEHI-164 fibrosarcoma = test: Low-dose treatment in subcutaneous WEHI-164 fibrosarcoma murine model; assay type: in vivo; conditions: 25 or 50 pg, i.p.
Description: FIG. 14. […] Balb/c mice (6-7 weeks old, weighing 18-20 g) were injected, s.c., with 1.5×10^6 WEHI-164 cells in the left flank and treated 5 days after tumor implantation (i.p.) with 25 or 50 pg of murine NGR-TNF or S-NGR-TNF in 0.9% sodium chloride, containing 100 µg/ml endotoxin-free human serum albumin (arrows). A) Tumor volumes after treatment (mean±SE, 6 mice per group). B) Tumor weight at day 15 (cumulative data of the two groups treated with 25 and 50 pg of drugs). *, P<0.05, **P<0.01 by unpaired t test of the area under the curve for each tumor (GraphPad Prism software).
To assess whether the addition of the Ser residue to NGR-TNF might affect its anti-tumor activity at low dose, inventors then analyzed the therapeutic activity of NGR-TNF and S-NGR-TNF (25 or 50 pg, i.p.) using the subcutaneous WEHI-164 fibrosarcoma murine model.

[5] = S-NGR-hTNF 100 pg in combination with melphalan 50 µg

Sequence of αvβ3 (P06756 31-889 limits assumed): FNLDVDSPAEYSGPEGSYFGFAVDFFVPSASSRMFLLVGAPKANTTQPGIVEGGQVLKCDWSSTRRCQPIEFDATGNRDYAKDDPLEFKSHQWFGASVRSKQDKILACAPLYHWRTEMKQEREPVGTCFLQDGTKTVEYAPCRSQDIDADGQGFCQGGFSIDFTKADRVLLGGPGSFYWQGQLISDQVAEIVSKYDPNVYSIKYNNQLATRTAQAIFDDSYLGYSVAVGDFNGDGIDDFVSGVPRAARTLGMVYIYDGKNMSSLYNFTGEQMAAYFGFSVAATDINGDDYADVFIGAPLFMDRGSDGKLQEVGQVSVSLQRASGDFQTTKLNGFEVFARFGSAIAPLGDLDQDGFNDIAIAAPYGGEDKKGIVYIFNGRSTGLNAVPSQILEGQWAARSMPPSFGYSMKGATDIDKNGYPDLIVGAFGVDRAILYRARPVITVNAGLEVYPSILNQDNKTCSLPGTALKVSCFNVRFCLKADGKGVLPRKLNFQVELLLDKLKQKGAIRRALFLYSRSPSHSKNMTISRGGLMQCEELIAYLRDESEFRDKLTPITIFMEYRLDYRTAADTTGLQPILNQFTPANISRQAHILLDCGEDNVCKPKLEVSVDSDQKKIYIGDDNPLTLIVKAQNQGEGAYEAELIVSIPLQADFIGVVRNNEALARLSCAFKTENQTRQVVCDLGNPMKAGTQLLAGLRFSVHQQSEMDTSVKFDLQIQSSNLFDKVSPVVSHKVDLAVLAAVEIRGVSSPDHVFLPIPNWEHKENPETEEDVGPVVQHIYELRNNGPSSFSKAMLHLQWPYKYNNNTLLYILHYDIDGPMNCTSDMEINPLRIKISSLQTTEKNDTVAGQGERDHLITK
Sequence of αvβ3 (P06756 891-1048 partner limits assumed): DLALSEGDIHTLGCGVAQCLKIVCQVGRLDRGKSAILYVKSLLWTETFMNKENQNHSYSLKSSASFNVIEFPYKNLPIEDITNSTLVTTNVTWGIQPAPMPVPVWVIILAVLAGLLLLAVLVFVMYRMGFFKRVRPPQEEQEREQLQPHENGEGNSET
Sequence of αvβ3 (P05106 27-788): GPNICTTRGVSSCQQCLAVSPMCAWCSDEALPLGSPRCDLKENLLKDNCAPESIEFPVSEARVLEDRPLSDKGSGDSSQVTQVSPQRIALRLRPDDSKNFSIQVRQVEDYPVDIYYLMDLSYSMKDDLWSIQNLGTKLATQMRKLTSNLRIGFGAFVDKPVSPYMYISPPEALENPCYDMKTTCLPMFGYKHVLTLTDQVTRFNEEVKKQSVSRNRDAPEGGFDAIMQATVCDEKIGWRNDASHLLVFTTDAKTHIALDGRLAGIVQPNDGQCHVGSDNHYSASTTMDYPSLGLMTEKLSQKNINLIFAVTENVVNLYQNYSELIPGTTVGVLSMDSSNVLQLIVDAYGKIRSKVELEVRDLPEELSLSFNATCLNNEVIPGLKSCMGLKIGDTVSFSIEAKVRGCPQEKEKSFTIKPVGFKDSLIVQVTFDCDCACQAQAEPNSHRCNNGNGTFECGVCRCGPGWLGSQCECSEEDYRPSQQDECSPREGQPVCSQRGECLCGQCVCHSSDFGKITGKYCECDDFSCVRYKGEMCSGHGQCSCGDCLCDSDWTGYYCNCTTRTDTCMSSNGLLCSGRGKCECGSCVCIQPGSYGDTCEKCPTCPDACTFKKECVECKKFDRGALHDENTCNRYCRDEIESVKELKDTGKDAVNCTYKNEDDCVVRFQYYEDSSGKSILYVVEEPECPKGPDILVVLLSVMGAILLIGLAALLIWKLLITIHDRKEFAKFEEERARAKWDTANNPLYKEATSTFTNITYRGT

CNGRC (SEQ ID NO:5) (disulfide 1-5 (inferred); listed as Homo sapiens)
deamidation half-life [1]: 4 to 5 h

S-NGR-hTNF: Human SCNGRCG-TNF fusion protein expressed in E. coli (SEQ ID NO:27/28)
median survival (RMA-T lymphoma; [5]): 36.5 days
toxicity of melphalan, judged from loss of animal weight (RMA-T lymphoma; [5]): without increasing its toxicity

human NGR-TNF: CNGRCG fused to the human TNF sequence, tested in Phase II and III clinical studies
disease control in previously treated patients ([2]; 0.8 µg/m^2, 1 h infusion): about half
duration of disease control ([2]; triweekly cohort): 4.4 months
duration of disease control ([2]; weekly cohort): 9.1 months
complete responses [3]: 50%
responses [3]: 75%

CisoDGRC (SEQ ID NO:41) (isoaspartate; disulfide cyclized; MOD_RES (1)..(1) Ciso or acetyl-Ciso or iso) [deamidation product of CNGRC]
affinity for αvβ3 greater than αvβ5, αvβ6, αvβ8, and α5β1 (αvβ3): 10-100 fold

N[C@@H](Cc1ccc(N(CCCl)CCCl)cc1)C(=O)O [melphalan, reference compound]
median survival (RMA-T lymphoma; melphalan 50 µg alone): ~28 days

B1: NGR-TNF: Murine CNGRCG-TNF fusion protein, conventional first-generation conjugate used as comparator (protein)
chain: CNGRCGLRSSSQNSSDKPVAHVVANHQVEEQLEWLSQRANALLANGMDLKDNQLVVPADGLYLVYSQVLFKGQGCPDYVLLTHTVSRFAISYQEKVNLLSAVKSPCPKDTPEGAELKPWYEPIYLGGVFQLEKGDQLSAEVNLPKYLDFAESGQVYFGVIAL
EC50 cytotoxic activity (L-M cells): very similar
efficacy of melphalan in combination (RMA lymphoma): could enhance the efficacy of melphalan
EA.hy926 cell adhesion to coated plates [4]: cell adhesion was observed
toxicity (WEHI-164 fibrosarcoma): No evidence of toxicity
tumor growth (WEHI-164 fibrosarcoma): delayed tumor growth to similar extent
